Reference: paper PMC5582869

B1: human ZDHHC6 (WT), Myc-tagged [human] / human ZDHHC6 (WT), Myc-tagged [human] (parent)
chain 1: MGTFCSVIKFENLQELKRLCHWGPIIALGVIAICSTMAMIDSVLWYWPLHTTGGSVNFIMLINWTVMILYNYFNAMFVGPGFVPLGWKPEISQDTMYLQYCKVCQAYKAPRSHHCRKCNRCVMKMDHHCPWINNCCGYQNHASFTLFLLLAPLGCIHAAFIFVMTMYTQLYHRLSFGWNTVKIDMSAARRDPLPIVPFGLAAFATTLFALGLALGTTIAVGMLFFIQMKIILRNKTSIESWIEEKAKDRIQYYQLDEVFVFPYDMGSRWRNFKQVFTWSGVPEGDGLEWPVREGCHQYSLTIEQLKQKADKRVRSVRYKVIEDYSGACCPLNKGIKTFFTSPCTEEPRIQLQKGEFILATRGLRYWLYGDKILDDSFIEGVSRIRGWFPRKCVEKCPCDAETDQAPEGEKKNR
chain 2: B1 chain 1

Variants of: B1
Experiment: co-immunoprecipitation (IP with myc antibodies, anti-GFP immunoblot, densitometry)
Conditions: HeLa cells transfected for 24 hr, n = 4, parent: 100, read off a plot

| Variant | percent of parent |
| --- | --- |
| chain 1 MGTFCSVIKFENLQELKRLCHWGPIIALGVIAICSTMAMIDSVLWYWPLHTTGGSVNFIMLINWTVMILYNYFNAMFVGPGFVPLGWKPEISQDTMYLQYCKVCQAYKAPRSHHCRKCNRCVMKMDHHCPWINNCCGYQNHASFTLFLLLAPLGCIHAAFIFVMTMYTQLYHRLSFGWNTVKIDMSAARRDPLPIVPFGLAAFATTLFALGLALGTTIAVGMLFFIQMKIILRNKTSIESWIEEKAKDRIQYYQLDEVFVFPYDMGSRWRNFKQVFTWSGVPEGDGLEWPVREGCHQYSLTIEQLKQKADKRVRSVRYKVIEDYSGAAAPLNKGIKTFFTSPATEEPRIQLQKGEFILATRGLRYWLYGDKILDDSFIEGVSRIRGWFPRKCVEKCPCDAETDQAPEGEKKNR [chain 1 C328A C329A C343A] | 39 % of WT |
